# Measurements taken from publication PMC9482650, “Quantitative fragmentomics allow affinity mapping of interactomes” (Nature Communications, 2022).
# How the values were obtained:
# Test in all cases: holdup assay
# Set-up in all cases: key: below the threshold = too weak to quantify, mostly under pKd 3.1 to 4
# [1] = target: LNX1_2, Q8TBB1
# [2] = target: T1, LNX2_2, Q8N448
# T1 sequence (Q8N448 334-432, limits assumed, looked up): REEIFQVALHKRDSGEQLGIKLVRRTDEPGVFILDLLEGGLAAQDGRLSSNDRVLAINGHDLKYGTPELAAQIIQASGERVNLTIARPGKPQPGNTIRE
# [3] = target: T2, APBA2_1, Q99767
# T2 sequence (Q99767 563-664, limits assumed, looked up): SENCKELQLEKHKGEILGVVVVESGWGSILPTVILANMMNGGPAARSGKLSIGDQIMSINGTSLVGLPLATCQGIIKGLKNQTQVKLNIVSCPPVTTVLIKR
# [4] = target: T3, APBA1_2, Q02410
# T3 sequence (Q02410 742-832, limits assumed, looked up): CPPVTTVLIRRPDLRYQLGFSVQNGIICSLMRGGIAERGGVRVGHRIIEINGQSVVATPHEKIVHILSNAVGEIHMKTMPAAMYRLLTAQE
# [5] = target: PDLIM1, O00151
# [6] = target: T4, FRMPD1, Q5SYB0
# T4 sequence (Q5SYB0 52-145, limits assumed, looked up): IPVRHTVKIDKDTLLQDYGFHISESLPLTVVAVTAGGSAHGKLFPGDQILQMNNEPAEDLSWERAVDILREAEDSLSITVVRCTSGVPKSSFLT
# [7] = target: T5, GRIP1_5, Q9Y3R0
# T5 sequence (Q9Y3R0 568-668, limits assumed, looked up): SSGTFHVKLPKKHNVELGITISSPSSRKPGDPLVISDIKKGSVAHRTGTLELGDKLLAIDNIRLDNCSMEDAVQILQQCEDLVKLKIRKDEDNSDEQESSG
# [8] = target: NOS1, P29475
# [9] = target: T6, DLG3_2, Q92796
# T6 sequence (Q92796 221-321, limits assumed, looked up): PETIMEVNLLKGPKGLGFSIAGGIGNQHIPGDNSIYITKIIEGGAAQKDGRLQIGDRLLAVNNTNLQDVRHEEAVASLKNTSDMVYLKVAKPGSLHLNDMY
# [10] = target: MAGI2_5, Q86UL8
# [11] = target: T7, LRRC7, Q96NW7
# T7 sequence (Q96NW7 1440-1537, limits assumed, looked up): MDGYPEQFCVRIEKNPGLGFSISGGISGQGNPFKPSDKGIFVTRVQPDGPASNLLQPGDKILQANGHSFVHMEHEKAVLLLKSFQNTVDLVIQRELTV
# [12] = target: FRMPD3, Q5JV73
# [13] = target: TJP1_2, Q07157
# [14] = target: MAST2, Q6P0Q8
# [15] = target: Inadl_6, Q8NI35
# [16] = target: T8, RADIL, Q96JH8
# T8 sequence (Q96JH8 971-1071, limits assumed, looked up): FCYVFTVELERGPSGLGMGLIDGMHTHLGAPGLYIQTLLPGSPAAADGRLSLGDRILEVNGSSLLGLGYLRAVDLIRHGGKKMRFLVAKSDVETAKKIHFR
# [17] = target: GRIP2_5, Q9C0E4
# [18] = target: T9, APBA2_2, Q99767
# T9 sequence (Q99767 654-744, limits assumed, looked up): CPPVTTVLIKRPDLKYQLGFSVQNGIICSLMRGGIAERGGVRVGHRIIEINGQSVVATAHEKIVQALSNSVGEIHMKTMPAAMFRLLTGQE
# [19] = target: DLG4_1, P78352
# [20] = target: T10, SIPA1L2, Q9P2F8
# T10 sequence (Q9P2F8 945-1036, limits assumed, looked up): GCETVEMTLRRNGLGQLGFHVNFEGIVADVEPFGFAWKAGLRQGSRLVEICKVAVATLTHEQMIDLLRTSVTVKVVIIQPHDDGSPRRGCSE
# [21] = target: MAGI2_4, Q86UL8
# [22] = target: T11, NHERF3_4, Q5T2W1
# T11 sequence (Q5T2W1 373-468, limits assumed, looked up): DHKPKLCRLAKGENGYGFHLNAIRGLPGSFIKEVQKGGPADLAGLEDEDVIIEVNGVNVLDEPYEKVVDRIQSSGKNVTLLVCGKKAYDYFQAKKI
# [23] = target: T12, TIAM2, Q8IVF5
# T12 sequence (Q8IVF5 885-986, limits assumed, looked up): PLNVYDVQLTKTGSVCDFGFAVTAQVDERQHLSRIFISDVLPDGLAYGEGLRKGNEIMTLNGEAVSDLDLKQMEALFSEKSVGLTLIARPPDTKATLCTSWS
# [24] = target: T13, MPP2, Q14168
# T13 sequence (Q14168 180-250, limits assumed, looked up): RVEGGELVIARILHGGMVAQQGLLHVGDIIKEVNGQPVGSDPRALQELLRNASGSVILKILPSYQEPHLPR
# [25] = target: SCRIB_3, Q14160
# [26] = plain residues with an end cap or a label only (N-terminal biotin on a linker: ado-ado)
# [27] = plain residues with an end cap or a label only (N-terminal biotin on a linker: (peg)3)
# FRMPD3, Q5JV73, sequence (Q5JV73 12-100): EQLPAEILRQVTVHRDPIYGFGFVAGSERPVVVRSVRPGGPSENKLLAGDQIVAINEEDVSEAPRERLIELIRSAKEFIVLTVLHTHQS
# MAGI2_4, Q86UL8, sequence (Q86UL8 772-865): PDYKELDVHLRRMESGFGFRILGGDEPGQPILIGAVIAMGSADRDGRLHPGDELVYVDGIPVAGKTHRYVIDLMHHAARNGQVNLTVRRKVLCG
# TJP1_2, Q07157, sequence (Q07157 181-274): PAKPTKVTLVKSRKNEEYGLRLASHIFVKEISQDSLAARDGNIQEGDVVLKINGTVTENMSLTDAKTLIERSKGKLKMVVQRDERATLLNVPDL
# DLG4_1, P78352, sequence (P78352 62-152): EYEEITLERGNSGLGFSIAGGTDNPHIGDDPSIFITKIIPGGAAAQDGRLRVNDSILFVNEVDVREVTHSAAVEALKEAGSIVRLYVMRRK
# Inadl_6, Q8NI35, sequence (Q8NI35 1058-1167): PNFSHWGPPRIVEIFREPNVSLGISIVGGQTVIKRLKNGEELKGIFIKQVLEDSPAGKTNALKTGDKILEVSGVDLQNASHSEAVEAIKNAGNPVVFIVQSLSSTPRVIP
# NOS1, P29475, sequence (P29475 9-101): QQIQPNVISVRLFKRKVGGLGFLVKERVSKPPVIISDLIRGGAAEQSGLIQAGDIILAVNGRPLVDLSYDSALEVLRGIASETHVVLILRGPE
# PDLIM1, O00151, sequence (O00151 1-87): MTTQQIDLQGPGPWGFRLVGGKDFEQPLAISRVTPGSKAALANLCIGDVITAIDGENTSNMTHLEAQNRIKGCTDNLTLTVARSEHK
# GRIP2_5, Q9C0E4, sequence (Q9C0E4 544-642): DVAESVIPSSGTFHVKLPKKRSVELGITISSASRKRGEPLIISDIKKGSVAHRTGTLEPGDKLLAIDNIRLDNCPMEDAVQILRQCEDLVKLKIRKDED
# SCRIB_3, Q14160, sequence (Q14160 999-1103): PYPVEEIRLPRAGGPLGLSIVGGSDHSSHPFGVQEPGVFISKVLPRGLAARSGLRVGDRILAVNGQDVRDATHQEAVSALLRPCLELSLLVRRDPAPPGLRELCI
# LNX1_2, Q8TBB1, sequence (Q8TBB1 371-470): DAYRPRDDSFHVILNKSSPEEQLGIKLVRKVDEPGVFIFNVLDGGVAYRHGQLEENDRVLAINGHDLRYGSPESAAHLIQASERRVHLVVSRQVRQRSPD
# MAST2, Q6P0Q8, sequence (Q6P0Q8 1099-1202): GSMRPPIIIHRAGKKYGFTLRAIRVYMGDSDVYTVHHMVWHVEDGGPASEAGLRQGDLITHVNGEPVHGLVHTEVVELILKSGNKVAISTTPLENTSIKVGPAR
# MAGI2_5, Q86UL8, sequence (Q86UL8 915-1017): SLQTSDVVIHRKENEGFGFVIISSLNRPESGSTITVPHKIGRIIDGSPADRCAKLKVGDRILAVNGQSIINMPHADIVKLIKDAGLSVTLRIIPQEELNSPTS
binder,measurement,setting,value
"EDPRVEVTQF [SLC22A9, Q8IVM8]",pKd,[1]; [26],below the threshold
same,pKd,[2]; [26],below the threshold
same,pKd,[3]; [26],below the threshold
same,pKd,[4]; [26],below the threshold
same,pKd,[5]; [26],below the threshold
same,pKd,[6]; [26],below the threshold
same,pKd,[7]; [26],below the threshold
same,pKd,[8]; [26],3.63
same,pKd,[9]; [26],4.17
same,pKd,[10]; [26],4.86
same,pKd,[11]; [26],below the threshold
same,pKd,[12]; [26],below the threshold
same,pKd,[13]; [26],below the threshold
same,pKd,[14]; [26],5.4
same,pKd,[15]; [26],below the threshold
same,pKd,[16]; [26],below the threshold
same,pKd,[17]; [26],below the threshold
same,pKd,[18]; [26],below the threshold
same,pKd,[19]; [26],below the threshold
same,pKd,[20]; [26],below the threshold
same,pKd,[21]; [26],below the threshold
same,pKd,[22]; [26],4.58
same,pKd,[23]; [26],4.15
same,pKd,[24]; [26],below the threshold
same,pKd,[25]; [26],3.66
"QQSMSSADSTQA [SARS-Cov2-N, P0DTC9]",pKd,[1]; [27],below the threshold
same,pKd,[2]; [27],below the threshold
same,pKd,[3]; [27],below the threshold
same,pKd,[4]; [27],below the threshold
same,pKd,[5]; [27],below the threshold
same,pKd,[6]; [27],below the threshold
same,pKd,[7]; [27],below the threshold
same,pKd,[8]; [27],below the threshold
same,pKd,[9]; [27],below the threshold
same,pKd,[10]; [27],below the threshold
same,pKd,[11]; [27],below the threshold
same,pKd,[12]; [27],below the threshold
same,pKd,[13]; [27],below the threshold
same,pKd,[14]; [27],below the threshold
same,pKd,[15]; [27],below the threshold
same,pKd,[16]; [27],below the threshold
same,pKd,[17]; [27],below the threshold
same,pKd,[18]; [27],below the threshold
same,pKd,[19]; [27],below the threshold
same,pKd,[20]; [27],below the threshold
same,pKd,[21]; [27],below the threshold
same,pKd,[22]; [27],below the threshold
same,pKd,[23]; [27],below the threshold
same,pKd,[24]; [27],below the threshold
same,pKd,[25]; [27],below the threshold
